# Biological target: native CTF cleaved from full-length rCav2.1 proteins
# Experiment: SDS-PAGE under mildly denaturing conditions with immunoblot
substance,measurement,value
native CTF cleaved from full-length rCav2.1 proteins,stoichiometry N,2
